Laboratory results: publication PMC4605297

Target: T1, SsOGT wild type (Sulfolobus solfataricus) (UniProt Q97VW7)
T1 sequence: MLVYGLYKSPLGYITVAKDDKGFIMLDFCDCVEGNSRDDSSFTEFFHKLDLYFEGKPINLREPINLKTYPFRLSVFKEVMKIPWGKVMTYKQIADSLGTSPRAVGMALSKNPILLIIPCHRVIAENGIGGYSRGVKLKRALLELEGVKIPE
Experiment: competition
Details: EMSA: 0-25 uM protein, 0.2 uM probe, 37 C 10 min, 10 ul, buffer as ref. 17, 8% native PAGE in 1X TBE pH 8.3, competition: BG-VG assay, 50 C under ref. …

Row | Sequence | Ki (O6-methylguanine at position 26 of strand 1) [nM] | Ki (O6-methylguanine at position 21 of strand 1) [nM]
1 | GGCAGTAGGCCTAGCATGACAATCTGCATTGGTGATCACGG / CGCTCATCCACAATGCAGATTGTCATGCTAGGCCTACTGCC [ds-Fwdm26] | 830 | –
2 | GGACACTGTACGTTAAGGCGGATCGAATTAGGATTAA / GGTTAATCCTAATTCGATCGCCTTAACGTACAGTGT [ds-UPm] | – | 280
